Test results from patent US20060099150A1.

Experiments:
[1] = biological target: pIgR expressed on transfected MDCK cells; experiment: cell-based or functional assay
[2] = biological target: pIgR Domain 6 GST (D6-GST) fusion protein, species not stated (Schistosoma japonica) [GST: P08515]; experiment: SPR BIAcore, 1:1 Langmuir global fit 62.5-1000 nM; ligand not named
Sequence of pIgR Domain 6 GST (D6-GST) fusion protein, species not stated (Schistosoma japonica) [GST: P08515] (P08515 whole entry, the tested form may be a part): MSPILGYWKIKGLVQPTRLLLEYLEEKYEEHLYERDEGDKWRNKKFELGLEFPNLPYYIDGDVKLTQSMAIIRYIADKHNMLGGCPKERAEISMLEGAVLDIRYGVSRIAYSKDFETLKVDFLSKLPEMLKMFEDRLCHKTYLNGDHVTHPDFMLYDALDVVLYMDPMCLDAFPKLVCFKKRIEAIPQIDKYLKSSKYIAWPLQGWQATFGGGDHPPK

transcytosis on pIgR expressing MDCK cells overnight [1]: 2%
Ka [2]: 4.47e+06 M⁻¹
Kd [2]: 224 nM
koff [2]: 0.00464 s⁻¹
kon [2]: 27100 M⁻¹ s⁻¹
B1: sFv5AF (scFv)
scFv: DYKAKQVQLVQSGGGVVQPGRSLRLSCAASGFTFSSYAMHWVRQAPGKGLEWVSAISGSGGSTYYADSVKGRFTISRDNAKNSLYLQMNSLRAEDTAVYYCARDTRGYFDLWGRGTLVTVSSGGGGSGGGGSGGGGSSELTQDPAMSVALGQTVRITCQGDSLRKYHASWYQQRPRQAPRLVVYGKNERPSGIPERFSGSTSGDTASLTISGLQAEDEADYYCHSRDSNADLVVFGGGTKVTVLGAAAEQKLISEEDLNGAAHHHHHH
